US10370438B2, “Histamine-releasing factor (HRF), HRF-receptor and methods of modulating inflammation” (LA JOLLA INSTITUTE FOR ALLERGY AND IMMUNOLOGY, priority 2010, dated 2019)
Each block holds one molecule with its values, some of them ahead of it.

How the values were obtained:
C57BL/6 mice = assay: OVA-induced mast cell-dependent airway inflammation model; format: in vivo, mouse; details: intranasal pretreatment before each OVA challenge
Method: Mice were sensitized with OVA (10 μg in 0.1 ml saline) at days 0, 7, 14, 21, 28, and 35. Sensitized mice were challenged with OVA (20 μg in 20 μl saline) at days 40, 43 and 46. Some mice were pretreated with GST, GST-N19 (400 μg in PBS), or N19 peptide (40 μg in 2% DMSO-containing PBS) 15 minutes before OVA challenge. Twenty-four hours after the last challenge, lung function in response to methacholine was tested using FlexiVent system (SCIREQ Scientific Respiratory Equipment). Mice were sacrificed and plasma, BAL fluids, and lung tissues were collected. Cells in BAL fluids were counted, and specific cell numbers were calculated after May-Giemsa staining of Cytospin preparations. Immunofluorescence microscopy was performed on membrane-permeabilized and non-permeabilized lung tissues. For staining of lung tissues by staining of H&E and periodic acid-Schiff (PAS), lung tissues were fixed with formalin and embedded in paraffin. For measurement of cytokine levels in lung tissues, lung homogenates were prepared (Oyoshi et al., Immunol. 120:303 (2007)) and cytokines quantified by ELISA. HRF in lung homogenates and plasma was SDS-PAGE and immunoblotting with anti-HRF Ab (Santa Cruz Biotechnology).
Asthma is a type 2 helper T cell-driven, chronic inflammatory lung disease (Wills-Karp, Annu Rev Immunol 17, 255 (1999)). To study HRF involvement in allergic airway inflammation, an airway inflammation model was utilized, in which mast cells are implicated in amplifying antigen-dependent chronic inflammation (Williams, et al., J Exp Med 192, 455 (Aug. 7, 2000)). C57BL/6 mice were first sensitized with OVA (10 μg) at days 0, 7, 14, 21, 28 and 35. At days 40, 43 and 46, mice were intranasally challenged with OVA (20 μg) or PBS. Some mice were intranasally pretreated with GST or GST-N19 (400 μg) before every OVA challenge. Twenty-four hours after the last challenge, mice were sacrificed and BAL fluids and lung tissues were collected. Lung tissues were homogenized.

HRF/IgE binding = assay: Competition ELISA of IgE binding to GST-mHRF-coated wells; set-up: species or system mouse; details: competitor incubated 2 hours
Method: To identify an inhibitor of HRF/Ig interactions to dissect the extracellular function (═HRF function as a cytokine) separate from the intracellular functions in vivo settings, the major Ig-interacting HRF sequence was studied as a specific inhibitor of HRF/Ig interactions. IgE molecules were incubated in GST-mHRF-coated wells in the presence or absence (−) of the indicated concentrations of competitors, GST-N19, GST-mHRF or mHRF-His6 for 2 hours. After incubation, bound-IgE was detected by incubation with biotinylated anti-mouse IgE mAb, followed by streptavidin-HRP. […] By contrast, none of the shorter mHRF peptides tested (residues 1-6, 1-12, 5-19, and 9-19) inhibited HRF/IgE binding. GST-N19 inhibited HRF/IgG binding as well.

IgE-sensitized mice = assay: Passive cutaneous anaphylaxis induced by mHRF in IgE-sensitized ears; format: in vivo, mouse; details: 8 hours after injection in IgE-sensitized ears
Method: Mouse ears were first sensitized with 0.5 μg anti-TNP (C38-2 in the right ear and C48-2 in the left ear) IgE. After 24 hours, Evans' blue dye was intravenously (i.v.) injected, and TNP26-BSA (Ag: 0.1 μg) or mHRF-His6 (10 μg) were immediately injected into the ears. The acute (30 minute) reactions were analyzed by measurement of Evans' blue dye leakage. The ear thickness was measured using a micrometer (Mitutoyo) at 0.5, 1, 2, 4, 6, 8, 12, and 24 hours after mHRF-His6challenge. As a negative control, saline was injected into the ears in place of antigen or HRF challenge. IgG-mediated response was performed by sensitization with 2 μg IgG1 (in place of anti-TNP IgE) and challenge with anti-mouse IgG1 Ab (0.6 μg: Southern Biotechnology, in place of TNP26-BSA). Engraftmanet of Kit^W-sh/W-sh mice with BMMCs was performed 6 weeks before study (Nakano, T., et al. J Exp Med 162:1025-1043 (1985)). In some studies, mice were sensitized and stimulated as described above but without Evans blue.
Here, mice were sensitized with the IgE. […] After 30 minutes, mice were sacrificed, and the amount of Evans blue dye leaked from the ears measured. […]
mHRF-His6 (H) was injected in IgE-sensitized ears and LPR was analyzed by measurement of ear thickness at 8 hours after injection. […]
IGELa2 IgE was intradermally injected into ears. […] Eight hours after injection, the ear thickness was measured (FIG. 7).

peritoneal mast cells = assay: β-hexosaminidase release (degranulation); format: cell-based, mouse; details: cells sensitized with HRF-reactive IgE, 40 minutes
Method: Mast cells were sensitized with 0.5 μg/ml IgE overnight. The mast cells were stimulated with TNP26-BSA or mHRF-His6 for 40 minutes in Tyrode's buffer. The amount of β-hexosaminidase (β-hex) in both supernatants and cell pellets was measured. The percentage of β-hex release was calculated as follows: % release=β-hex in supernatants/β-hex in supernatants+β-hex in cell pellets)
These hypersensitivity reactions appear to be dependent on mast cells, as the reactions were abolished in mast cell-deficient Kit^W-sh/W-sh mice and restored in Kit^W-sh/W-sh mice engrafted with WT BMMCs (FIG. 6A). […] Therefore, HRF and HRF-reactive IgE can induce anaphylactic responses in a mast cell- and FcεRI-dependent manner. Consistent with this, peritoneal mast cells sensitized with the HRF-reactive, but not the HRF-nonreactive, IgE were activated upon stimulation with HRF (FIG. 6D). After 40 minutes, both supernatants and cell pellets were collected and β-hexosaminidase release was analyzed (FIG. 6D).

Unimmunized mice = assay: Intranasal HRF in naïve mice, BAL differential cell counting; format: in vivo, mouse; details: for Lung inflammation: naïve C57BL/6 (WT) mice, 40 μg intranasally three times
Method: In light of the presence of HRF-reactive IgG in naïve mice and recent studies reporting the role of mast cells in the initiation of adaptive immune responses (Galli, et al., Nat Immunol 6, 135 (February, 2005)), the effect of HRF on naïve mice was assessed. Unimmunized C57BL/6 (WT), μMT, and FcRγ^−/− mice (n=5 per cohort) were treated intranasally with 40 μg mHRF-His6 three times every third day. PBS served as a negative control. BAL procedures were conducted 24 hours after the last HRF administration. Differential cell counting was performed on cytospin preparations stained with May-Giemsa. […] FcRγ is shared by multiple Fc receptors including FcεRI.

IgE = assay: ELISA with monomeric and dimeric HRF-His6 as capturing agent; format: binding, mouse
Method: Monomeric and dimeric HRF-His6 proteins purified by HPLC were coated onto plastic wells. After blocking, 206 (HRF-nonreactive) and IGELa2 (HRFreactive) IgEs were incubated. Bound IgEs were detected by incubation with biotin-conjugated anti-mouse IgE antibody, followed by incubation with horseradish peroxidase-conjugated streptavidin. The absorbance at 450 nm was measured after development of the color. […] The dimerizing ability of HRF with multiple Ig-binding sites strongly indicates the potential of HRF to crosslink Ig-bound Fc receptors.

- Inhibition of IgE binding to immobilized GST-mHRF (HRF/IgE binding): none
Molecule: residues 9-19: shorter mHRF peptide, residues 9-19 (SHDELFSDIYK; UniProt P63028 9-19, looked up, fragment)

- Binding to IgE (IgE; dimeric form as capturing agent): can bind
- Binding to IgE (IgE; monomeric form as capturing agent): can bind
B1: mHRF-His6: C-terminally hexahistidine-tagged recombinant mouse histamine releasing factor (protein)
chain: MIIYRDLISHDELFSDIYKIREIADGLCLEVEGKMVSRTEGAIDDSLIGGNASAEGPEGEGTESTVVTGVDIVMNHHLQETSFTKEAYKKYIKDYMKSLKGKLEEQKPERVKPFMTGAAEQIKHILANFNNYQFFIGENMNPDGMVALLDYREDGVTPFMIFFKDGLEMEKCHHHHHH
- Late-phase reaction (LPR), ear swelling (IgE-sensitized mice): as high as that induced by antigen
- Mast cell activation (β-hexosaminidase release) (peritoneal mast cells): activated
- HRF effects (lung inflammation) (Unimmunized mice; B cell-deficient (μMT) or FcRγ−/− mice): not observed
- Lung inflammation (Unimmunized mice): induced weak lung inflammation
- Lung inflammation (Unimmunized mice; listed as HRF): weak lung inflammation is induced
- HRF-induced lung inflammation (Unimmunized mice; naïve FcεRIα−/− mice): abrogated or reduced
- Neutrophils and eosinophils in BAL fluids (Unimmunized mice; naïve WT mice): increased

More lines, now with the values behind:

Molecule: N19 peptide: synthetic non-fusion N19 peptide, N-terminal 19 residue peptide of HRF (MIIYRDLISHDELFSDIYK; UniProt P63028 1-19, looked up, fragment)
- Airway inflammation (C57BL/6 mice): abrogated

Molecule: residues 1-6: shorter mHRF peptide, residues 1-6 (MIIYRD; UniProt P63028 1-6, looked up, fragment)
- Inhibition of IgE binding to immobilized GST-mHRF (HRF/IgE binding): none

Molecule: residues 1-12: shorter mHRF peptide, residues 1-12 (MIIYRDLISHDE; UniProt P63028 1-12, looked up, fragment)
- Inhibition of IgE binding to immobilized GST-mHRF (HRF/IgE binding): none

Molecule: residues 5-19: shorter mHRF peptide, residues 5-19 (RDLISHDELFSDIYK; UniProt P63028 5-19, looked up, fragment)
- Inhibition of IgE binding to immobilized GST-mHRF (HRF/IgE binding): none
